According to the supplement of paper PMC9170038:

Tested on: MS2 coat protein
Assay: apparent KD of MS2 coat protein; designed switch direction (-1 OFF switch, 1 ON switch): -1; higher = weaker reporter binding
In short: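 Designed RNA switches sharing common flanks were transcribed on Illumina chips by stalled E. coli RNA polymerase. They were titrated with SNAP-549-labelled MS2 coat protein, from 0.7 or 1.5 nM doubling to 3 µM, in Tris-HCl pH 7.5 buffer with KCl, MgCl2, BSA, DTT, tRNA and Tween-20. Titrations ran without input, with 200 uM small-molecule ligand, or with an oligonucleotide input. The apparent KD of each design is the median over its clusters, after curve-fitting of normalised cluster fluorescence.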

[1] = input ligand: microRNA oligo, concentration not stated
[2] = Eterna round: R95, input ligand: microRNA oligo, concentration not stated

Row | Sequence | apparent KD of MS2 coat protein (input ligand: FMN 200 uM) [µM] | apparent KD of MS2 coat protein (input ligand: none) [µM] | further results
1 | UAUAUAUAGUAAGGAUAUGUAAUUAUUUCAUAAACAGAAGGUACUGACAUGAGGAUCACCCAUGUUUUAGUGUGGGCAUGUAGA [JMF's solution 43] (Eterna round: R96, puzzle: Exclusion NG 1) |  |  | apparent KD of MS2 coat protein [1]: 0.0602 µM
2 | UAUAUAUAGUAAGGAUAUGUAAUUAUUUUAGAAACAGAAGGUACUGACAUGAGGAUCACCCAUGUUUUAGUGUGGGCAUGUAGA [JMF's solution 45] (Eterna round: R96, puzzle: Exclusion NG 1) |  |  | apparent KD of MS2 coat protein [1]: 0.0699 µM
3 | UAUAUAUAGUAAGGAUAUGUAUAAAUUUUAUAAACAGAAGGUACUGACAUGAGGAUCACCCAUGUUUUAGUGUGGGCAUGUAGA [JMF's solution 52] (Eterna round: R96, puzzle: Exclusion NG 1) |  |  | apparent KD of MS2 coat protein [1]: 0.0746 µM
4 | UAUAUAUAGUAAGGAUAUGUAUAUAUUUUACAAACAGAAGGUACUGACAUGAGGAUCACCCAUGUUUUAGUGUGGGCAUGUAGA [JMF's solution 68] (Eterna round: R96, puzzle: Exclusion NG 1) |  |  | apparent KD of MS2 coat protein [1]: 0.0433 µM
5 | UAUAUAUAGUAAGGAUAUGUAUAUUUUUUAUAAACAGAAGGUACUGACAUGAGGAUCACCCAUGUUUUAGUGUGGGCAUGUAGA [JMF's solution 53] (Eterna round: R96, puzzle: Exclusion NG 1) |  |  | apparent KD of MS2 coat protein [1]: 0.0638 µM
6 | UAUAUAUAGUAAGGAUAUGUAUCUAUUUUAUAAACAGAAGGUACUGACAUGAGGAUCACCCAUGUUUUAGUGUGGGCAUGUAGA [JMF's solution 8] (Eterna round: R96, puzzle: Exclusion NG 1) |  |  | apparent KD of MS2 coat protein [1]: 0.0716 µM
7 | UAUAUGUAAGGAUAUCUCGUCAUGGAGGAAACUCCAUGACGAGAGAAGGUACAUGAGGAUCACCCAUGUCUAUU [Mod of Fisker 24 - Jieux - Exclusion 4] (Eterna round: R97, puzzle: Exclusion 4) | 0.117 | 0.0331 | 
8 | UAUAUGUCAGGAUAUCGCAACUGCGCGCGCAAGAAUCAUAACGAGAAGGGACAUGAGGAUCACCCAUGUACACU [I dont know] (puzzle: Exclusion 4) |  |  | apparent KD of MS2 coat protein [2]: 0.0181 µM
9 | UAUAUGUCAGGAUAUUGUUAAUUUAGUUGUUUGUAUUAGUUCGAGAAGGGACAUGAGGAUCACCCAUGUUGUUU [Ex4 #57] (Eterna round: R97, puzzle: Exclusion 4) | 0.0288 | 0.0296 | 
10 | UAUAUUGGAGGAUAUCUCUCAGUGAACAUGAGGAUCACCCAUGUUGGUGAACGACGGCACAGAGAAGGUCAACGCA [Eternabot (L2) Solution 61] (Eterna round: R97, puzzle: Exclusion 5) | 0.314 | 0.499 | 
11 | UAUCGGCGGACCGAGGCUUUUUGCUCGUCUUAUGCUACAACAUGAGGAUCACCCAUGUGGUGGUGGUCCGUUGUAGU [JL ViennaUCT Bitein mod 9] (puzzle: Sensor v3, turn-off variant 2) |  |  | apparent KD of MS2 coat protein (Eterna round: R95, input ligand: FMN 200 uM): 0.0197 µM; apparent KD of MS2 coat protein [2]: 0.0135 µM; apparent KD of MS2 coat protein (Eterna round: R95, input ligand: none): 0.0318 µM
12 | UAUGGUAAAGUCAGGAUAUACGUGCAGUUUUCUAGGUAGAAGGGACAUGAGGAUCACCCAUGUAUGGUAGUGUU [Ex4 #46] (Eterna round: R97, puzzle: Brourd's mod of Exclusion 4) | 0.0951 | 0.0835 | 
13 | UAUGGUUAAGUCAGGAUAUGCUCGUAGAGGUCUAUGCAGAAGGGACAUGAGGAUCACCCAUGUAUGGUCGUGUU [Ex4 #67] (Eterna round: R97, puzzle: Brourd's mod of Exclusion 4) | 0.161 | 0.067 | 
14 | UAUGUGUCAGGAUAUCGAUUAGAACAGAAUUUAACAAUAGUCGAGAAGGGACAUGAGGAUCACCCAUGUUCAUC [JR_Ex4_Sub022] (Eterna round: R97, puzzle: Exclusion 4) | 0.0264 | 0.0189 | 
15 | UAUGUGUCAGGAUAUUAAUUAUAACAGAAUUUAACAAUGAUUAAGAAGGGACAUGAGGAUCACCCAUGUUCAUC [JR_Ex4_Sub024] (Eterna round: R97, puzzle: Exclusion 4) | 0.0227 | 0.0204 | 
16 | UAUGUUGUUGUGAGGAUAUACUUUGUUUGACCGUAGUAGAAGGCACAUGAGGAUCACCCAUGUAGAUUUUUGGU [JR_BME4_Sub008] (puzzle: Brourd's mod of Exclusion 4) |  |  | apparent KD of MS2 coat protein [2]: 0.00912 µM
17 | UAUUAAACAUAGGAUAUCGAAUAAAUCAUUUAACGAGAAGGAUGAACAUGAGGAUCACCCAUGUGGUAUCAUGG [Mat - Exclusion 6 - JL Mod - D14] (puzzle: Exclusion 6) |  |  | apparent KD of MS2 coat protein [2]: 0.242 µM

Row | Sequence | apparent KD of MS2 coat protein (input ligand: FMN 200 uM) [µM] | apparent KD of MS2 coat protein (input ligand: none) [µM] | further results
18 | UAUUAAUGCAAGGAUAUGCUAUUAAUUUUUUUUGCAGAAGGUGCAACAUGAGGAUCACCCAUGUUUGAGGGUAU [JR_E6_Sub029] (puzzle: Exclusion 6) |  |  | apparent KD of MS2 coat protein [2]: 0.0559 µM
19 | UAUUACAAGCGAAGAUCCCACAUGAGGAUCACCCAUGUGCUCGUCUUAUAAGGUACUGUGACGAAAGUCACGGUACC [Sensor 3, v1 - 91 v16] (Eterna round: R97, puzzle: Sensor, turn-off variant 1) | 0.0327 | 0.0311 | 
20 | UAUUAGCAAGCAACUGGGUACAUGAGGAUCACCCAUGUGCUCGUCUUAUAAGGUACUGUGACGAAAGUUACGGUACC [mod--Eli115] (Eterna round: R97, puzzle: Sensor, turn-off variant 1) | 0.0179 | 0.0174 | 
21 | UAUUAGCAAGCAAGAUCCCACAUGAGGAUCACCCAUGUGCUCGUCUUAAUUCCAGAAUUACUGGGCUCUCGUCUUAU [JR_STOV1_Sub090] (Eterna round: R97, puzzle: Sensor, turn-off variant 1) | 0.041 | 0.0406 | 
22 | UAUUAGCAAGCGAGAUCCCACAUGAGGAUCACCCAUGUGCUCGUCUUAUAAAAGACUGUGACGAUAGUCACGGUCAC [Mat - Sensor, turn-off var - Eli Mod - D22] (Eterna round: R97, puzzle: Sensor, turn-off variant 1) | 0.0142 | 0.0131 | 
23 | UAUUAGCAAGCGAGAUCCCACAUGAGGAUCACCCAUGUGCUCGUGCAUCCAGAAUUACUGGGUGCUGCUCGUCUUAU [Winner reversed engineered 13] (Eterna round: R97, puzzle: Sensor, turn-off variant 1) | 0.0152 | 0.0148 | 
24 | UAUUAGCAAGUAAGAUCCCACAUGAGGAUCACCCAUGUGCUCGUCAUAUAACGUACUGUGAGGAAACUCACGGUACG [Sensor-V1 #84] (Eterna round: R97, puzzle: Sensor, turn-off variant 1) | 0.085 | 0.103 | 
25 | UAUUAGCUAGGAUAUACAUGAGGAUCACCCAUGUCACGGGUCCACUUGUCCUAUGCGUGUAGAAGGAGCGACCC [JL Ceriza mod 3] (puzzle: Exclusion 3) |  |  | apparent KD of MS2 coat protein [2]: 0.0207 µM
26 | UAUUAGUAAGGAUAUCUCGUCAUGGACGUGAGUCCAUGACGAGAGAAGGUACAUGAGGAUCACCCAUGUCCAUU [Mod of Fisker 20 - Jieux - Exclusion 4] (Eterna round: R97, puzzle: Exclusion 4) | 0.0165 | 0.0141 | 
27 | UAUUAGUGAGGAUAUGGUAAAGAUAAGAUGAUGAAAGAACUCCAGAAGGCACAUGAGGAUCACCCAUGUAGUAG [JL-ex4-2.09 Jieux mod] (puzzle: Exclusion 4) |  |  | apparent KD of MS2 coat protein [2]: 0.0195 µM
28 | UAUUAUCAAGCUUGAUCCCACAUGAGGAUCACCCAUGUGCUCGUCUUAUUUCUGUCCUUAUUGUUCUCUCGUCUAAU [JR_STOV1_v2_Sub097] (Eterna round: R97, puzzle: Sensor, turn-off variant 1) | 0.0802 | 0.0941 | 
29 | UAUUCACAUGAGGAUCACCCAUGUCAGGAUAUAGAAGCGUAGUCCGCAAGAAAGCUUACUAGAAGGGACGUAUU [EX1 B.22] (Eterna round: R97, puzzle: Exclusion 1) | 0.0188 | 0.0185 | 
30 | UAUUGCUGAGGAUAUAUAUAGAGCAUUUUCCUCGUGACAGAACAUGAGGAUCACCCAUGUAGAAGGCAGAAGUG [Eternabot (L2) Solution 87] (Eterna round: R97, puzzle: Exclusion 2) | 0.263 | 0.192 | 
31 | UAUUUGUGAGGAUAUGAGUCGUAGAACAAUAGUACUACGUCUCAGAAGGUACAUGAGGAUCACCCAUGUUCCUC [Fiskers Ex 4 Super Stable 44 mod 31] (puzzle: Exclusion 4) |  |  | apparent KD of MS2 coat protein [2]: 0.0184 µM
32 | UAUUUUGCAAGCAGAUCCCACAUGAGGAUCACCCAUGUGCUCGUCUUAUAAGGUUCUGUGACGAUAGUCACGGUACC [mod -Eli mod] (Eterna round: R97, puzzle: Sensor, turn-off variant 1) | 0.0459 | 0.0461 | 
33 | UCAAGUAUGUAGGAUAUCGAUGUCUGCGGACAUCGAGAAGGACGUACAUGAGGAUCACCCAUGUAACUUGCAUG [Exclusion 6 - B - 10:c] (puzzle: Exclusion 6) |  |  | apparent KD of MS2 coat protein [2]: 0.0709 µM
